Source: US20100151573A1 (published 2010)

Columns and labels:
[1] = biological target: T1, Recombinant human P-selectin/Fc chimera covalently coupled to DSPE-PEG2000 maleimide and inserted into … (human, UniProt P16109 42-771, sulfhydryl groups introduced at primary amines with Traut's reagent (2-iminothiolane) and linked to the maleimide group of DSPE-PEG2000; positions not stated); assay: perfusion of HL60 cells through nanoparticle coated microtube, microscopy
T1 construct: Bought rhP/Fc (R&D Systems); also called rhP/Fc-DSPE-PEG2000 maleimide; PS-DSPE-PEG NP; Fc part of the bought chimera not given
T1 sequence (looked up): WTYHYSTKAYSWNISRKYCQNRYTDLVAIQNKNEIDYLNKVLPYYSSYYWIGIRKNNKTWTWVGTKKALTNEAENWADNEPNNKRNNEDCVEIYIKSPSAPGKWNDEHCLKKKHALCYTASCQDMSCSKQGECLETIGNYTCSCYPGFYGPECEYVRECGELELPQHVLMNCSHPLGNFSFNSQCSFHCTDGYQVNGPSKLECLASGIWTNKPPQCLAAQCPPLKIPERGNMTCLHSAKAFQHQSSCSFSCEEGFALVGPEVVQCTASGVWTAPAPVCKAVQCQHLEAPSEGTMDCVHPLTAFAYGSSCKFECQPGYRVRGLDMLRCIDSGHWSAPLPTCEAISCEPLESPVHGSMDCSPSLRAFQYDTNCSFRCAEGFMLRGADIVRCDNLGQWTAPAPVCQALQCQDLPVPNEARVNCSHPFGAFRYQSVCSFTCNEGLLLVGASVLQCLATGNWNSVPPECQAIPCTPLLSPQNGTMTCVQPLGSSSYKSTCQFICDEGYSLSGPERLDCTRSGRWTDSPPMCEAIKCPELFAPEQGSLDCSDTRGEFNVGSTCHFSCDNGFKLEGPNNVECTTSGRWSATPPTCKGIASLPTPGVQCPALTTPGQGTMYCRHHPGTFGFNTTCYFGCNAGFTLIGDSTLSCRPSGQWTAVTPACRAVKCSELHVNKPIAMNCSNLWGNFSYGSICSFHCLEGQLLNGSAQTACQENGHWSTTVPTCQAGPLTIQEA
Method: P-selectin nanoparticles were coated onto the surface of microrenathane tubing for 2 h at RT, and then perfusion experiments conducted. (a) and (b) were taken before perfusion, (c) and (d) were taken after perfusion but before the cells were released. (e) and (f) were taken after the adherent cells were released from the microtubing. In (g) and (h), HL60 cells were perfused through the P-selectin coated tube. In (i) and (j), cells were pre-incubated with anti-PSGL-1 for 1 h at RT and then perfused through the P-selectin coated tube. In (k) and (l), the perfused cells were MCF7. In (m) and (n), the P-selectin nanoparticles were incubated with anti-P-selectin for 1 h at RT and then applied to the microtube coating. In (o) and (p), P-selectin was replaced with IgG to construct the coating nanoparticles. The pictures were taken after cellular perfusion but before the cells were released from the surface. [III]. Nanoparticles alone could not (q, r, s) but P-selectin nanoparticles could (t, u, v) deliver Cy3-siRNA into HL60 cells under rolling conditions in the microtubing. q and t were taken in epifluorescence mode, r and u were taken in brightfield mode, and s and v are the merge of q and r, and […]. TRITC represents Tetramethyl Rhodamine Iso-Thiocyanate filter. […]

[2] = biological target: T2, Recombinant human P-selectin/Fc chimera (rhP/Fc), not conjugated, adsorbed on microtubing (human, UniProt P16109 42-771); assay: perfusion of HL60 cells through rhP/Fc coated microtube
T2 construct: Microtubing pre-incubated with rhP/Fc at 60 ug/ml in PBS for 2 h, then coated with non-targeting nanoparticles; Fc part of the bought chimera not given
T2 sequence (looked up): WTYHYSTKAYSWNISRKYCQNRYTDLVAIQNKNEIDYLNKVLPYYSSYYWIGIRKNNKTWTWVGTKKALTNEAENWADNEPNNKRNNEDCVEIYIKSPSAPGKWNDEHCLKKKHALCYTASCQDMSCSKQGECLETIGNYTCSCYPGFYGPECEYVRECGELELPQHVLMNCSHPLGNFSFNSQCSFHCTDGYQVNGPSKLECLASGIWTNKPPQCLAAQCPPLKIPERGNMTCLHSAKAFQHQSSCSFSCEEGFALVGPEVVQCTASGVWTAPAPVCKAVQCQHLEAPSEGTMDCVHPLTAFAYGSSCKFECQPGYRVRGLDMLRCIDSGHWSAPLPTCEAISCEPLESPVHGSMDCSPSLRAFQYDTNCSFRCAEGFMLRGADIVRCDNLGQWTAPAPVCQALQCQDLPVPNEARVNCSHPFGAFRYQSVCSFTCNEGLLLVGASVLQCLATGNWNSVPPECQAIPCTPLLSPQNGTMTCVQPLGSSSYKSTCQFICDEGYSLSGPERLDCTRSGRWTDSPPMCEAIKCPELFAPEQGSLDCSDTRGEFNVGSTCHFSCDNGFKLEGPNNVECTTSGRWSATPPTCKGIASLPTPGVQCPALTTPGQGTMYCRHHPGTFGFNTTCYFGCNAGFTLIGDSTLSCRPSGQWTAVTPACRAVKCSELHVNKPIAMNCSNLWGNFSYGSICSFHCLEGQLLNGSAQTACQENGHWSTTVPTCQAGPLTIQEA

binding result [1]: binds | binding result [2]: binds
B1: P-selectin glycoprotein ligand-1 (PSGL-1) on HL60 cells (receptor, UniProt Q14242 42-412, looked up)
chain: QATEYEYLDYDFLPETEPPEMLRNSTDTTPLTGPGTPESTTVEPAARRSTGLDAGGAVTELTTELANMGNLSTDSAAMEIQTTQPAATEAQTTQPVPTEAQTTPLAATEAQTTRLTATEAQTTPLAATEAQTTPPAATEAQTTQPTGLEAQTTAPAAMEAQTTAPAAMEAQTTPPAAMEAQTTQTTAMEAQTTAPEATEAQTTQPTATEAQTTPLAAMEALSTEPSATEALSMEPTTKRGLFIPFSVSSVTHKGIPMAASNLSVNYPVGAPDHISVKQCLLAILILALVATIFFVCTVVLAVRLSRKGHMYPVRNYSPTEMVCISSLLPDGGEGPSATANGGLSKAKSPGLTPEPREDREGDDLTLHSFLP
notes: whole, on cells; also called P-selectin receptor; PSGL-1 receptors in HL60 cells
